Assay results reported in patent publication US20170226213A1 (Daiichi Sankyo, published 2017).
Residue numbers refer to the chain shown, from its start.

B1: FGFR4 binding Fab U4-4 (Fab, V domains shown)
VH: EVQLLESGGGLVQPGGSLRLSCAASGFTFSSNYMSWVRQAPGKGLEWVSLISGSGGSTYYADSVQGRFTISRDNSKNTLYLQMNSLRAEDTAVYYCARNTAGFGYFDLWGQGTLVTVSS
VL: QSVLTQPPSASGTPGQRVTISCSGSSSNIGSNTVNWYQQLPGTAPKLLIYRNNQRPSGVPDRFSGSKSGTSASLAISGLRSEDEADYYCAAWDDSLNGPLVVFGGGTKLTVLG
B2: human anti-FGFR4 antibody U4-6 (antibody, V domains shown)
VH: EVQLLESGGGLVQPGGSLRLSCAASGFTFSDYYMNWVRQAPGKGLEWVSAIGGSGDRTYYADSVKGRFTISRDNSKNTLYLQMNSLRAEDTAVYYCALGGSYFGYWGQGTLVTVSS
VL: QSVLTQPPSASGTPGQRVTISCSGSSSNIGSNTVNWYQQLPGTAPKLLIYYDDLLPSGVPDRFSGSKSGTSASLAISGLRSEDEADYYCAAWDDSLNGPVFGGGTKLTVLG
notes: IgG format
B3: FGFR4 binding Fab U4-1 (Fab, V domains shown)
VH: EVQLLESGGGLVQPGGSLRLSCAASGFTFSRNYMSWVRQAPGKGLEWVSAISGSGGSTYYADSVKGRFTISRDNSKNTLYLQMNSLRAEDTAVYYCARVTSPGAFDIWGQGTLVTVSS
VL: QSVLTQPPSASGTPGQRVTISCSGGTSNIGTNTVNWYQQLPGTAPKLLIYRNNQRPSGVPDRFSGSKSGTSSSLAISGLRSEDEADYYCAAWDDSLNGPYVVFGGGTKLTVLG
B4: human anti-FGFR4 antibody U4-8 (antibody, V domains shown)
VH: B3 VH with R31S, A50S, S57R, V99M, S101V, P102F, F105A, D106T, I107L
VL: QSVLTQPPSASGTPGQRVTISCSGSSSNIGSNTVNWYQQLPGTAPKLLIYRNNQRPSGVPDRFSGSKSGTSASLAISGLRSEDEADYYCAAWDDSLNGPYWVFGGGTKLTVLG
notes: IgG format
B5: human anti-FGFR4 antibody U4-3 (antibody, V domains shown)
VH: B3 VH with R31D, N32Y, V37I, A50T, V99L, S101A, P102Y, A104H, F105V, I107S
VL: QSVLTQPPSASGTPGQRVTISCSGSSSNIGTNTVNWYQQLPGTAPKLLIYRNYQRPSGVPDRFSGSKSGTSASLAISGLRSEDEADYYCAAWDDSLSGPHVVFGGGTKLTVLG
B6: FGFR4 binding Fab U4-8 (Fab, V domains shown)
VH: B3 VH with R31S, A50S, S57R, V99M, S101V, P102F, F105A, D106T, I107L
VL: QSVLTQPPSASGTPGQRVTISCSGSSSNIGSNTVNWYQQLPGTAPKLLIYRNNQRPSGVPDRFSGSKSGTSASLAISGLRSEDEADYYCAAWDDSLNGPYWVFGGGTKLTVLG
B7: FGFR4 binding Fab U4-2 (Fab, V domains shown)
VH: B3 VH with R31K, N32A, Y33W, V99L, T100Y, P102Y, A104D, I107H
VL: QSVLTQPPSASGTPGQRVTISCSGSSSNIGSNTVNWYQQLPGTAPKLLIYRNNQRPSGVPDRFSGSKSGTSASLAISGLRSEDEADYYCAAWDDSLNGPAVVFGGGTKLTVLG
B8: human anti-FGFR4 antibody U4-2 (antibody, V domains shown)
VH: B3 VH with R31K, N32A, Y33W, V99L, T100Y, P102Y, A104D, I107H
VL: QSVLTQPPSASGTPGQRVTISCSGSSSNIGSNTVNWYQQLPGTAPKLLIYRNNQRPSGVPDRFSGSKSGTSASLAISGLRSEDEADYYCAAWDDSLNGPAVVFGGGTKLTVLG
B9: human anti-FGFR4 antibody U4-1 (antibody, V domains shown)
VH: B3 VH
VL: B3 VL
B10: human anti-FGFR4 antibody U4-9 (antibody, V domains shown)
VH: B3 VH with R31D, N32Y, V37I, A50T, V99L, S101A, P102Y, A104H, F105V, I107S
VL: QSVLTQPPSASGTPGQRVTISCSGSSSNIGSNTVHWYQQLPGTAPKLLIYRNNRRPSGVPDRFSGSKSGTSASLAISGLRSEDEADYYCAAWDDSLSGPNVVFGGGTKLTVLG
notes: IgG format
B11: human anti-FGFR4 antibody U4-7 (antibody, V domains shown)
VH: B3 VH with R31D, N32Y, R98T, V99L, T100A, S101T, P102Y, A104P, I107D
VL: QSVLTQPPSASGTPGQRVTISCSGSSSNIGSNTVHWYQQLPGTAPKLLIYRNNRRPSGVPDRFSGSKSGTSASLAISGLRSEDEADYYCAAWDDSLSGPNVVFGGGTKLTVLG
notes: IgG format
B12: FGFR4 binding Fab U4-7 (Fab, V domains shown)
VH: B3 VH with R31D, N32Y, R98T, V99L, T100A, S101T, P102Y, A104P, I107D
VL: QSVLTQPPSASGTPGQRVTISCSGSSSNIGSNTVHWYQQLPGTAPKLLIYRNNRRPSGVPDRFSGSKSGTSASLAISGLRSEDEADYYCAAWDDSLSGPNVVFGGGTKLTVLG
B13: FGFR4 binding Fab U4-5 (Fab, V domains shown)
VH: EVQLLESGGGLVQPGGSLRLSCAASGFTFSSNYMNWVRQAPGKGLEWVAVISYDGSNKYYADSVKGRFTISRDNSKNTLYLQMNSLRAEDTAVYYCVTKSRDFWRGPFDYWGQGTLVTVSS
VL: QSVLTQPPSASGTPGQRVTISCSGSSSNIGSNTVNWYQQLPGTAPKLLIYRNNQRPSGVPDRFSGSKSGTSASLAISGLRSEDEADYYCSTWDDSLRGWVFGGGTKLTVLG
B14: human anti-FGFR4 antibody U4-5 (antibody, V domains shown)
VH: B13 VH
VL: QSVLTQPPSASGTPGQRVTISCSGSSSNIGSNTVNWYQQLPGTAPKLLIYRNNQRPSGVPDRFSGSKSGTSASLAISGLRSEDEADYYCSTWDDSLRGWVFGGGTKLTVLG
notes: IgG format

Key:
[1] = molecular target: T1, human FGFR4 (FGF receptor 4) on cells (human, UniProt P22455 22-802); experiment: cell-based or functional assay
[2] = molecular target: T1, human FGFR4 (FGF receptor 4) on cells; experiment: flow cytometry titration on Huh-7 cells
Protocol: Huh-7 cells (obtained from JCRB Cell Bank) were cultured in DMEM containing 10% FBS under standard conditions at 37° C. and 5% CO₂. Cells were harvested with 5 mM EDTA (in PBS) and 200,000 cells per sample were incubated with indicated anti-FGFR4 antibody (1:3 serial dilution; starting concentration 30 μg/ml) for 30 min at 4° C. After incubation, cells were washed and bound antibody was determined using a Phycoerythrin-labeled anti-human IgG antibody (Jackson Immuno Research). Antibody binding to Huh-7 was measured with a BD Accuri C6 flow cytometer (BD Biosciences, San Jose, Calif.; U.S.A.) and analyzed using the AccuriC6 software. Subsequently, the equilibrium dissociation constant (KD) was determined using Prism (GraphPad Software, La Jolla, Calif., U.S.A.).

[3] = molecular target: T2, cynomolgus monkey FGFR4 on transfected Hek293 cells (cynomolgus monkey); experiment: flow cytometry titration on transfected Hek293 cells
T2 construct: whole, on cells
Protocol: Hek293 cells were obtained from CLS (Cell Lines Service, Eppelheim; Germany) and cultured in DMEM containing 10%FBS under standard conditions at 37° C. and 5% CO2. On Day 0, cells were seeded at 4×10⁵ cells/10 cm dish. After 24 h, cells were transfected with plasmids coding for FGFR4 from rat, mouse, human or cynomolgus monkey. Cells were allowed to express the proteins for 48 h and were then dissociated from the dish with 5 mM EDTA in PBS followed by incubation with indicated concentrations of anti-FGFR4 antibody U4-3 or GT-13. Binding was determined using a Phycoerythrin-conjugated anti-human IgG antibody (Jackson Immuno Research Europe). Data was acquired with a BD Accuri C6 flow cytometer (BD Biosciences.) and analyzed using the AccuriC6 software. Antibody titrations experiment (starting concentration 10 μg/ml; 1:3 dilution) allowed calculation of the dissociation constants for the antibodies (see table below).

[4] = molecular target: T3, FGFR4 construct with Ig-like domain 1 (amino acids 22-180) on Hek293 cells (UniProt P22455 22-180); experiment: flow cytometry on Hek293 cells transfected with the FGFR4 (D1) construct, PE-conjugated anti-human IgG
T3 construct: range 22-180; Expressed on transfected Hek293 cells
Protocol: Hek293 cells were obtained from CLS and cultured in DMEM containing 10% FBS under standard conditions at 37° C. and 5% CO2. On Day 0, cells were seeded and after 24 h cells were transfected with plasmids coding for FGFR4 containing the indicated domain. Cells were allowed to express the proteins for 48 h and were then dissociated from the dish with 5 mM EDTA in PBS followed by incubation with indicated anti-FGFR4 antibody. Binding was determined using a Phycoerythrin-conjugated anti-human IgG antibody (Jackson Immuno Research Europe). Data was acquired with a BD Accuri C6 flow cytometer (BD Biosciences) and analyzed using the AccuriC6 software.

[5] = molecular target: T1, human FGFR4 (FGF receptor 4) on cells; experiment: cell-based or functional assay; remark: listed apart in the source
[6] = molecular target: T4, extracellular domain of human FGFR4 (myc- and His-tagged) (human, UniProt P22455 22-369); experiment: ELISA, FGFR4 ECD (myc, His) captured by anti-His antibody
T4 construct: extracellular domain; Captured on the plate by a mouse anti-His tag antibody; also called human FGFR4-His/Myc; FGFR4 ECD; not shown: myc and His tags
Protocol: (§1) Mouse anti-His tag antibody was obtained from Bio-Rad (Hercules, Calif.; U.S.A.) and coated onto MaxiSorp® flat-bottom 96 well ELISA plates (Sigma, St. Louis, Mo.; U.S.A.) at a concentration of 2 μg/ml. After coating, the extracellular domain of human FGFR4 (myc- and His-tagged) was added at a concentration of 0.01 μg/ml. After removal of unbound protein, indicated antiFGFR4 antibody was added (1:4 serial dilution, starting concentration 10 μg/ml) and binding was finally detected with the AttoPhos® AP Fluorescent Substrate System (Promega) using an alkaline-phosphatase coupled goat anti-human IgG F(ab′) fragment on the Fluostar Omega fluorescent plate reader instrument from BMG Labtech (Ortenberg; Germany). Subsequently, dissociation constants were calculated for U4-3, -5 and -9 using Graph Pad Prism (Table 5).

[7] = molecular target: T4, extracellular domain of human FGFR4 …; experiment: ELISA, FGFR4 ECD (myc/His) captured by anti-His antibody, AP-coupled anti-human IgG F(ab') detection
Protocol: as §1

[8] = molecular target: antigen of the Biacore assay (FGFR4; construct not stated) (UniProt P22455 22-369, limits assumed); experiment: Biacore T100, antibody captured by anti-human IgG, antigen injected, bivalent analyte model, KD1, average of 3
Protocol: Standard amine coupling was applied to prepare a goat anti-human IgG capturing S-CM5 sensor chip (the reference flow cell contained the capturing antibody as well). The carboxymethylated dextran (CMD) surface was activated by injecting a mixture of 200 mM EDC and 50 mM NHS for 7 min (10 μl/min). Subsequently, 30 μg/ml anti-human IgG antibody diluted in 10 mM Na acetate pH 5.0 was injected for 7 minutes (10 μl/min). The remaining unreacted esters were quenched with 1 M Ethanolamine pH 8.5 (7 min, […]). Surface densities of 17892-18376 RU were obtained for the antihuman IgG antibody.
Interaction analyses of antigen with reversibly captured antibody were performed using a Biacore™ T100 instrument (GE Healthcare Bio-Sciences (Piscataway, N.J.; U.S.A.)) at 25° C. in HBS analysis buffer (10 mM HEPES pH 7.4, 150 mM NaCl, 50 μM EDTA, 0.05% Tween 20). 37-38 RU of specific antibody was captured on a flow cell. […] The dissociation was recorded for 10 min at the same flow rate. […]
Data processing (e.g. blank run subtraction) and evaluation was performed by global fitting applying a bivalent analyte binding model using the Biacore T100 Evaluation Software version 2.0.3. The equilibrium dissociation constant KD1 was calculated by dividing kd1 with ka1.

Row | Binder | Elk1 luciferase reporter gene assay, % of control (+rhFGF 17), Fab at 0.1 µg/ml [1] | Elk1 luciferase reporter gene assay, % of control (+rhFGF 17), Fab at 1 µg/ml [1] | Elk1 luciferase reporter gene assay, % of control (+rhFGF 17), Fab at 10 µg/ml [1] | Kd [2] [nM] | further results
1 | B1 | 82.2 % of control (+rhFGF 17) | 28.8 % of control (+rhFGF 17) | 20.1 % of control (+rhFGF 17) | – | –
2 | B2 | – | – | – | 1.6 | –
3 | B3 | 70.4 % of control (+rhFGF 17) | 39.6 % of control (+rhFGF 17) | 32 % of control (+rhFGF 17) | – | –
4 | B4 | – | – | – | 0.46 | –
5 | B5 | – | – | – | – | Kd [3]: 0.32 nM; binding result [4]: no binding
6 | B6 | 65.2 % of control (+rhFGF 17) | 22.5 % of control (+rhFGF 17) | 12.7 % of control (+rhFGF 17) | – | –
7 | B7 | 112 % of control (+rhFGF 17) | 43.8 % of control (+rhFGF 17) | 26.6 % of control (+rhFGF 17) | – | –
8 | B8 | – | – | – | 0.15 | –
9 | B9 | – | – | – | 0.85 | –
10 | B10 | – | – | – | – | IC50, NIH3T3 spheroid growth assay (CellTiter-Glo) [5]: 10.6 nM; Kd [6]: 0.07 nM; EC50 (read off the curve) [7]: ~0.08 nM; Kd [8]: 0.12 nM
11 | B11 | – | – | – | 1.3 | –
12 | B12 | 72.6 % of control (+rhFGF 17) | 33.1 % of control (+rhFGF 17) | 16.8 % of control (+rhFGF 17) | – | –
13 | B13 | 116 % of control (+rhFGF 17) | 43.2 % of control (+rhFGF 17) | 16.3 % of control (+rhFGF 17) | – | –
14 | B14 | – | – | – | 1.5 | Kd [6]: 0.08 nM
